Data as given in the supplement of paper PMC9170038.

Test system: MS2 coat protein
Experiment: apparent KD of MS2 coat protein; designed switch direction (-1 OFF switch, 1 ON switch): -1; higher = weaker reporter binding
Procedure, shortened: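 Designed RNA switches sharing common flanks were transcribed on Illumina chips by stalled E. coli RNA polymerase. They were titrated with SNAP-549-labelled MS2 coat protein, from 0.7 or 1.5 nM doubling to 3 µM, in Tris-HCl pH 7.5 buffer with KCl, MgCl2, BSA, DTT, tRNA and Tween-20. Titrations ran without input, with 200 uM small-molecule ligand, or with an oligonucleotide input. The apparent KD of each design is the median over its clusters, after curve-fitting of normalised cluster fluorescence.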

[1] = Eterna round: R95, input ligand: microRNA oligo, concentration not stated
[2] = input ligand: microRNA oligo, concentration not stated
[3] = Eterna round: R95, input ligand: FMN 200 uM
[4] = Eterna round: R95, input ligand: none

Row | Sequence | apparent KD of MS2 coat protein (input ligand: FMN 200 uM) [nM] | apparent KD of MS2 coat protein (input ligand: none) [nM] | apparent KD of MS2 coat protein [1] [nM] | other results
1 | AGUCGGUCAGGAUAUGCAAUCGUGGACAUGAGGAUCACCCAUGUAACGUGGGCCUGGUUUGUAGAAGGGACGAGCA [EX5 #87] (Eterna round: R97, puzzle: Exclusion 5) | 66 | 61.2 | – | –
2 | CUUUUUUCUGUAAGGAUAUAGCCCGCGAGAUGUGGCUAGAAGGUACAUGAGGAUCACCCAUGUGUGUCCACAUU [Eternabot (L1) Solution 55] (Eterna round: R97, puzzle: Brourd's mod of Exclusion 4) | 141 | 46.8 | – | –
3 | CAGUACUGAGGAUAUACAUGAGGAUCACCCAUGUCCUAAAAGUAGGAUACUACUAUUAGUAGAAGGCAGUACUG [Fiskers Ex 3 828 mod 23] (puzzle: Exclusion 3) | – | – | 18.1 | –
4 | GACCCUGCCUAGGAUAUGCAUCUGUCAGUCAGGGCAGAAGGAGGCACAUGAGGAUCACCCAUGUGACCCGGCGU [EX6 C.3] (Eterna round: R97, puzzle: Exclusion 6) | 14.6 | 14.5 | – | –
5 | UAUUAGCAAGCAAAUGGGUACAUGAGGAUCACCCAUGUGCUCGUCUUAUAAGGUACUGUGCCGAAAGUCACGGUACC [mod--Eli2] (Eterna round: R97, puzzle: Sensor, turn-off variant 1) | 23 | 23.4 | – | –
6 | UUCCUCAUAACAUGAGGAUCACCCAUGUAUUAUUUGAUAACUGAGGAUAUACUUUUAAUGUUUAUGUAGAAGGCAGAUACAGUU [JR_ExcNG3_Sub016] (Eterna round: R96, puzzle: Exclusion NG 3) | – | – | – | apparent KD of MS2 coat protein [2]: 89.6 nM
7 | UAACCUCGCGUCAGGAUAUGUGAGGACUGUGACGCACAGAAGGGACAUGAGGAUCACCCAUGUGAAAGAAAUAA [Erlacema] (puzzle: Brourd's mod of Exclusion 4) | – | – | 22.2 | –
8 | AGGUGUAGAGGAUAUACAGUGUAUUACAUGAGGAUCACCCAUGUCCUUCAAUGGGUAUCAGUAGAAGGCUACACCA [Omei Ex5 C1] (Eterna round: R97, puzzle: Exclusion 5) | 1060 | 485 | – | –
9 | UCGGCGCGAGGAUAUACGUUUGCGCGUUUUCGUUUUCGCGUACAUGAGGAUCACCCAUGUAGAAGGCGCGCCGC [Apr-15 SS2-15] (puzzle: Exclusion 2) | – | – | 14 | –
10 | GUGAUAUAGUUAGUGGCCUACAUGAGGAUCACCCAUGUGAGGGAAAUGUUGAGGCGAAAGUUUUUUGCUCGUCUUUA [JR_SV3TOV1_Sub038] (puzzle: Sensor v3, turn-off variant 1) | – | – | 38.6 | apparent KD of MS2 coat protein [3]: 18 nM; apparent KD of MS2 coat protein [4]: 19.1 nM
11 | GCGCCAUCGUGAGAUGGCGUAAUUACAUGAGGAUCACCCAUGUAGGAUAUCGAUUGCUUUGCAGUCGAGAAGGGCAUGAUAAGU [JL ENG3 3.79] (Eterna round: R96, puzzle: Exclusion NG 3) | 49.6 | 43.3 | – | apparent KD of MS2 coat protein [2]: 34.6 nM
12 | UAUCGGGACUGAGGAUAUUCGUUCGAGCACGAAGAAGAAGGUAGUGUCAGGGACAUGAGGAUCACCCAUGUGAUCUCAGUCCCA [JL ViennaUCT Erinle mod 7] (Eterna round: R96, puzzle: Exclusion NG 1) | 71.8 | 67 | – | apparent KD of MS2 coat protein [2]: 60.4 nM
13 | AAUCCACAUGAGGAUCACCCAUGUCAGGAUAUCUUUGGCCUAACAUGUUAGGACCGUUAGAGAAGGGACACGAU [EX1 B.28] (Eterna round: R97, puzzle: Exclusion 1) | 70.3 | 18.2 | – | –
14 | UUAAAUCAUGUAGGAUAUGGAAGGCGAACCUAUCCAGAAGGACAUGAGGAUCACCCAUGUGCUGCGUUGUCCGUAGACAGCGCU [Ex NG1 #1] (Eterna round: R96, puzzle: Exclusion NG 1) | 114 | 36.2 | – | apparent KD of MS2 coat protein [2]: 29.5 nM
15 | AUUAAACAUGUAGGAUAUGCGUGGCAAAGCUAUGCAGAAGGACAUGAGGAUCACCCAUGUAAAAGCGUCUGAGUACAGAUGCAA [Mat - Exclusion NG 1 - Mod of JL - D87] (Eterna round: R96, puzzle: Exclusion NG 1) | 374 | 62.9 | – | apparent KD of MS2 coat protein [2]: 61.5 nM
16 | UUUAGUUCAGGAUAUGUAGAUUUUAACAUGAGGAUCACCCAUGUAGAUCCUGAAUUAACUACAGAAGGGAACAUUU [Exclusion 5: 2:a] (Eterna round: R96, puzzle: Exclusion 5) | 94.3 | 24.3 | – | apparent KD of MS2 coat protein [2]: 20.2 nM
17 | UGUACUAACACGAUAGUGUUAGUACAAUAAGCUUGUGUUACAUGAGGAUCACCCAUGUCCUCAUAAGCUCGUCUUAU [Mat - Sensor v3 - Turn-off var 2 - D55] (puzzle: Sensor v3, turn-off variant 2) | – | – | 141 | apparent KD of MS2 coat protein [3]: 109 nM; apparent KD of MS2 coat protein [4]: 105 nM
18 | AUAUGUAACUAGGAUAUCAGCAUACUUCAAUGUUGAGAAGGAGUUACAUGAGGAUCACCCAUGUAUCCAACAUG [Exclusion 6 - 3] (puzzle: Exclusion 6) | – | – | 44.1 | –

Row | Sequence | apparent KD of MS2 coat protein (input ligand: FMN 200 uM) [nM] | apparent KD of MS2 coat protein (input ligand: none) [nM] | apparent KD of MS2 coat protein [1] [nM] | other results
19 | GUAAAGUGAGGAUAUGGUAAAGUAAGUAUGUAGUAAGUAAUCCAGAAGGCACAUGAGGAUCACCCAUGUAAAUG [Mat - Exclusion 4 - D99] (puzzle: Exclusion 4) | – | – | 28.8 | –
20 | UUCGGCGGAGGAUAUACAGUUUUUUGUUGAAUCGGCGGAAAACAUGAGGAUCACCCAUGUAGAAGGUUGUUGAA [-19.8, -17.1 kcal, A 28%] (Eterna round: R97, puzzle: Exclusion 2) | 64.2 | 65.6 | – | –
21 | CUAUUCCGAGGAUAUACAUGAGGAUCACCCAUGUCGGGCCUCAGCGUUUAGCGCGUAAGUAGAAGGUGGGUUUC [JL Riri mod 7] (puzzle: Exclusion 3) | – | – | 27.4 | –
22 | GUCCUGGAUUAUCACAAGCACAUGAGGAUCACCCAUGUCAUGGGUGGAUCCCUAAAUGGGUAUUCUGCUCGUCUUAU [Cac Sensor turn off v1 sub11] (Eterna round: R97, puzzle: Sensor, turn-off variant 1) | 417 | – | – | –
23 | AAGAAACAUGAGGAUCACCCAUGUGAGGAUAUGACUAAGAAAAGAAAAGAAAGAAGACUCAGAAGGCACAAAGG [salish99-ex1_r3_075] (puzzle: Exclusion 1) | – | – | 54.5 | apparent KD of MS2 coat protein [3]: 68.9 nM; apparent KD of MS2 coat protein [4]: 46.8 nM
24 | AGUUGGUCAGGAUAUUCUAUUAAUUACAUGAGGAUCACCCAUGUGAAUGGACAAGGGUGUGAAGAAGGGACUGGCG [Omei Ex5 A17c] (Eterna round: R97, puzzle: Exclusion 5) | 692 | 1780 | – | –
25 | GUCCUGGAAUAUCAGAAGCACAUGAGGAUCACCCAUGUCAUGGGUAGAUCAAUAAAUAAAGAUACUGCUCGUCUUAU [Cac sensor turnoff var1 sub4] (Eterna round: R97, puzzle: Sensor, turn-off variant 1) | 837 | 228 | – | –
26 | GGUCAGACGGUAGGAUAUCCAUAUCGAGUGACCUUUUCAUAACAUGAGGAUCACCCAUGUCGGUGGGAGAAGGGCCGUACGGCG [salish99_ExNG02_R04_004] (Eterna round: R96, puzzle: Exclusion NG 2) | 114 | 93.2 | – | apparent KD of MS2 coat protein [2]: 78.2 nM
27 | AGAUGGCGAGGAUAUACAUGAGGAUCACCCAUGUGAGAAUAGAAAGUGAGGAAGAAAAGUAGAAGGCGCUGUCA [Mat - Exclusion 3 - Mod of Salish D22] (puzzle: Exclusion 3) | – | – | 59.7 | apparent KD of MS2 coat protein [3]: 125 nM; apparent KD of MS2 coat protein [4]: 73.4 nM
28 | CCGUUGUCAGGAUAUCGUGCAUACAACGAAAGUUCUAUGUGCGAGAAGGGACAUGAGGAUCACCCAUGUUACGG [Omei Ex4 A1] (Eterna round: R97, puzzle: Exclusion 4) | 90.3 | 41.2 | – | –
29 | GAGUUAGCGUGAGGAAUAUACAUGAGGAUCACCCAUGUUAGCUAAUAUAUUGCUCGUCUUAUAACAACAAUUAACUG [Mod JX-Electric-eye] (Eterna round: R97, puzzle: Sensor, turn-off variant 1) | 14.2 | 15.9 | – | –
30 | UUUAUAAUUUCAAUCUUCGCUGGCAAACUUACGCCAGCCACAUGAGGAUCACCCAUGUUUUUUGUUCGUUUUACUCU [Tetevea] (puzzle: Sensor v3, turn-off variant 2) | – | – | 64 | apparent KD of MS2 coat protein [3]: 18 nM; apparent KD of MS2 coat protein [4]: 22.5 nM
31 | CCUCGACAUGAGGAUCACCCAUGUCAGGAUAUUGUGUCUCGGGUUUUUUACCGAAAGGCGAGAAGGGAUGUGUG [LRO-Excl1-12] (puzzle: Exclusion 1) | – | – | 13.9 | –
32 | AAACCUAUAGGAUAUACAUGAGGAUCACCCAUGUUGCGAUUUUUUAGGUAACAGAUCCGUAGAAGGGUAGGUCA [Reinesce] (puzzle: Exclusion 3) | – | – | 38.1 | –
33 | UAUGGUUAAGUCAGGAUAUGCACGAAGAGGUCUAUGCAGAAGGGACAUGAGGAUCACCCAUGUAAAGUCGUGUU [Ex4 #72] (Eterna round: R97, puzzle: Brourd's mod of Exclusion 4) | 57.3 | 36.6 | – | –
34 | ACAUGGAAGCAGGAUAUGCUUGUUUAAUUGUUUGCAGAAGGGCUAACAUGAGGAUCACCCAUGUAAGAGGUCUA [JR_E6_Sub062] (puzzle: Exclusion 6) | – | – | 16.8 | –
35 | UUAAUUAAUUUAUUAGAUCCUCACAUGAGGAUCACCCAUGUGCAGGAUAUCAGCUCGAUUAGAGCUGAGAAGGGCACUAUAAAU [ExNG3/10-B1] (Eterna round: R96, puzzle: Exclusion NG 3) | 65 | 62.2 | – | apparent KD of MS2 coat protein [2]: 56.4 nM
